Assay results published in patent EP2045266A1 (INSERM (Institut National de la Santé et de la Recherche …, dated 2009).

Molecular target: T1, LexA DNA-binding domain fusion of 4 kDa pro-fragment of human cath-D (human, UniProt P0A7C2 1-202; P07339 21-64, limits assumed)
T1 construct: also called 4 kDa pro-fragment (yeast two-hybrid bait)
T1 sequence (looked up): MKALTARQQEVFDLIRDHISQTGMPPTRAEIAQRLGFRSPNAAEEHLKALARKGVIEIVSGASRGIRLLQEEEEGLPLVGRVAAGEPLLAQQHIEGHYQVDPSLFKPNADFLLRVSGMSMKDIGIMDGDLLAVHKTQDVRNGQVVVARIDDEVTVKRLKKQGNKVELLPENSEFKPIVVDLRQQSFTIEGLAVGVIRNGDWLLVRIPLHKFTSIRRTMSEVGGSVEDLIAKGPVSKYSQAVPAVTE
Assay: yeast two-hybrid

binding result: no binding
B1: B42 activation domain fusion of LRP1β (307-479) (yeast two-hybrid clone, pYESTrp2-LRP1β (307-479)) (other, not shown: large carriers)
chain: PSGMPTCRCPTGFTGPKCTQQVCAGYCANNSTCTVNQGNQPQCRCLPGFLGDRCQYRQCSGYCENFGTCQMAADGSRQCRCTAYFEGSRCEVNKCSRCLEGACVVNKQSGDVTCNCTDGRVAPSCLTCVGHCSNGGSCTMNSKMMPECQCPPHMTGPRCEEHVFSQQQPGHIA
notes: also called the clone isolated in the screen
